Reference: patent US20120316071A1 (published 2012)

How the values were obtained:
[1] = molecular target: T1, Recombinant Human DLL4 (delta-like protein 4) (human, UniProt Q9NR61 27-529); experiment: 96-well plate ECL binding assay, DLL4 immobilised, Fab in solution
T1 construct: Bought recombinant human DLL4 (R&D Systems Cat#1506-D4/CF); also called rHuman DLL4; Delta-like 4

[2] = molecular target: T1, Recombinant Human DLL4 (delta-like …); experiment: ELISA, DLL4 coated on plate, Fab in solution, absorbance at 450 nm
Recombinant Human DLL4 [3] = molecular target: T2, Recombinant Human DLL4 (human, UniProt Q9NR61 27-524); experiment: ELISA on plate-coated DLL4, Fab at 20 nM (3-fold serial dilution)
T2 construct: Bought recombinant human DLL4 (R&D Systems 1506-D4/CF); also called delta-like protein 4; rHuman DLL4

Recombinant Human DLL4 [4] = molecular target: T2, Recombinant Human DLL4; experiment: ELISA on plate-coated DLL4, Fab at 0.74 nM (3-fold serial dilution)
Recombinant Human DLL4 [5] = molecular target: T2, Recombinant Human DLL4; experiment: ELISA on plate-coated DLL4, Fab at 2.22 nM (3-fold serial dilution)
Recombinant Human DLL4 [6] = molecular target: T2, Recombinant Human DLL4; experiment: ELISA on plate-coated DLL4, Fab at 6.67 nM (3-fold serial dilution)
Recombinant Human DLL4 [7] = molecular target: T2, Recombinant Human DLL4; experiment: ECL (MSD) binding assay, Fab on immobilised recombinant human DLL4; Fab concentration not given in the table

B1: Fab VH1-46_IGHD6-6*01_IGHJ1*01 S102A/S103P/S104F/H111F & L6_IGKJ1*01 S28N/S30D/S31H N53G (Fab, V domains shown)
VH: QVQLVQSGAEVKKPGASVKVSCKASGYTFTSYYMHWVRQAPGQGLEWMGIINPSGGSTSYAQKFQGRVTMTRDTSTSTVYMELSSLRSEDTAVYYCAREEYAPFSAEYFQFWGQGTLVTVSS
VL: EIVLTQSPATLSLSPGERATLSCRASQNVDHYLAWYQQKPGQAPRLLIYDASGRATGIPARFSGSGSGTDFTLTISSLEPEDFAVYYCQQRSNWPPWTFGQGTKVEIKR
notes: Fab with CH1 (plasmid A, His6 and Flag tags) and kappa CL (plasmid C); also called H:APFF & L:NDH N53G
Question: What does the source list for B1?
Answer: ECL signal [1]: 20600; ELISA (Avgerage signal-noise) [2]: 0.163

B2: Fab VH1-46_IGHD6-6*01_IGHJ1*01 S102A/S103P/S104F/H111F N52L/S54T/G56H & L6_IGKJ1*01 S28N/S30D/S31H S52L/A55G (Fab, V domains shown)
VH: QVQLVQSGAEVKKPGASVKVSCKASGYTFTSYYMHWVRQAPGQGLEWMGIILPTGHSTSYAQKFQGRVTMTRDTSTSTVYMELSSLRSEDTAVYYCAREEYAPFSAEYFQFWGQGTLVTVSS
VL: EIVLTQSPATLSLSPGERATLSCRASQNVDHYLAWYQQKPGQAPRLLIYDALNRGTGIPARFSGSGSGTDFTLTISSLEPEDFAVYYCQQRSNWPPWTFGQGTKVEIKR
notes: Fab expressed in E. coli: VH joined to CH1 from Plasmid A (His6 and Flag tags), VL joined to kappa CL from Plasmid C; also called H:APFF LTH & L:NDH LG
Question: How did the ELISA signal (Recombinant Human DLL4 [3]) turn out when B2 was run?
Answer: 1.01

Question: What about the ELISA signal (Recombinant Human DLL4 [4]) of the same binder?
Answer: 0.368

Question: What about the ELISA signal (Recombinant Human DLL4 [5]) of the same binder?
Answer: 0.594

Question: And the ELISA signal (Recombinant Human DLL4 [6])?
Answer: 0.88

Question: What about the “ECL signal” value (Recombinant Human DLL4 [7]) of the same binder?
Answer: 9010

B3: Fab VH1-46_IGHD6-6*01_IGHJ1*01 S102A/S103P/S104F/H111F N52L/S54T/G56H & L6_IGKJ1*01 S28N/S30D/S31H S52L/A55S (Fab, V domains shown)
VH: QVQLVQSGAEVKKPGASVKVSCKASGYTFTSYYMHWVRQAPGQGLEWMGIILPTGHSTSYAQKFQGRVTMTRDTSTSTVYMELSSLRSEDTAVYYCAREEYAPFSAEYFQFWGQGTLVTVSS
VL: EIVLTQSPATLSLSPGERATLSCRASQNVDHYLAWYQQKPGQAPRLLIYDALNRSTGIPARFSGSGSGTDFTLTISSLEPEDFAVYYCQQRSNWPPWTFGQGTKVEIKR
notes: Fab expressed in E. coli: VH joined to CH1 from Plasmid A (His6 and Flag tags), VL joined to kappa CL from Plasmid C; also called H:APFF LTH & L:NDH LS
Question: How did the ELISA signal (Recombinant Human DLL4 [3]) turn out when B3 was run?
Answer: 1.05

Question: And the ELISA signal (Recombinant Human DLL4 [4])?
Answer: 0.398

Question: What about the ELISA signal (Recombinant Human DLL4 [5]) of the same binder?
Answer: 0.557

Question: What about the ELISA signal (Recombinant Human DLL4 [6]) of the same binder?
Answer: 0.916

Question: What about the “ECL signal” value (Recombinant Human DLL4 [7]) of the same binder?
Answer: 11500

B4: Fab VH1-46_IGHD6-6*01_IGHJ1*01 S102A/S103P/S104F/H111F & L6_IGKJ1*01 S28N/S30D/S31H S52T (Fab, V domains shown)
VH: QVQLVQSGAEVKKPGASVKVSCKASGYTFTSYYMHWVRQAPGQGLEWMGIINPSGGSTSYAQKFQGRVTMTRDTSTSTVYMELSSLRSEDTAVYYCAREEYAPFSAEYFQFWGQGTLVTVSS
VL: EIVLTQSPATLSLSPGERATLSCRASQNVDHYLAWYQQKPGQAPRLLIYDATNRATGIPARFSGSGSGTDFTLTISSLEPEDFAVYYCQQRSNWPPWTFGQGTKVEIKR
notes: Fab with CH1 (plasmid A, His6 and Flag tags) and kappa CL (plasmid C); also called H:APFF & L:NDH S52T
Question: Which results are given for B4?
Answer: ECL signal [1]: 20100; ELISA (Avgerage signal-noise) [2]: 0.263

B5: Fab VH1-46_IGHD6-6*01_IGHJ1*01 S102A/S103P/S104F/H111F & L6_IGKJ1*01 S28N/S30D/S31H S52W (Fab, V domains shown)
VH: QVQLVQSGAEVKKPGASVKVSCKASGYTFTSYYMHWVRQAPGQGLEWMGIINPSGGSTSYAQKFQGRVTMTRDTSTSTVYMELSSLRSEDTAVYYCAREEYAPFSAEYFQFWGQGTLVTVSS
VL: EIVLTQSPATLSLSPGERATLSCRASQNVDHYLAWYQQKPGQAPRLLIYDAWNRATGIPARFSGSGSGTDFTLTISSLEPEDFAVYYCQQRSNWPPWTFGQGTKVEIKR
notes: Fab with CH1 (plasmid A, His6 and Flag tags) and kappa CL (plasmid C); also called H:APFF & L:NDH S52W
Question: B5 was tested. Which “ECL signal” value [1] did it give?
Answer: 16300

Question: And the “ELISA (Avgerage signal-noise)” value [2]?
Answer: 0.177

B6: Fab VH1-46_IGHD6-6*01_IGHJ1*01 S102A/S103P/S104F/H111F & L6_IGKJ1*01 S28N/S30D/S31H S52L (Fab, V domains shown)
VH: QVQLVQSGAEVKKPGASVKVSCKASGYTFTSYYMHWVRQAPGQGLEWMGIINPSGGSTSYAQKFQGRVTMTRDTSTSTVYMELSSLRSEDTAVYYCAREEYAPFSAEYFQFWGQGTLVTVSS
VL: EIVLTQSPATLSLSPGERATLSCRASQNVDHYLAWYQQKPGQAPRLLIYDALNRATGIPARFSGSGSGTDFTLTISSLEPEDFAVYYCQQRSNWPPWTFGQGTKVEIKR
notes: Fab made in E. coli; The rest is CH1 from plasmid A (His6 and Flag tags) and kappa CL from plasmid C; also called H:APFF & L:NDH S52L
Question: B6 was tested. Which “ECL signal” value [1] did it give?
Answer: 17800

Question: And the “ELISA (Avgerage signal-noise)” value [2]?
Answer: 0.285

B7: Fab VH1-46_IGHD6-6*01_IGHJ1*01 S102A/S103P/S104F/H111F I51V/N52L/S54T/G56H & L6_IGKJ1*01 S28N/S30D/S31H (Fab, V domains shown)
VH: QVQLVQSGAEVKKPGASVKVSCKASGYTFTSYYMHWVRQAPGQGLEWMGIVLPTGHSTSYAQKFQGRVTMTRDTSTSTVYMELSSLRSEDTAVYYCAREEYAPFSAEYFQFWGQGTLVTVSS
VL: EIVLTQSPATLSLSPGERATLSCRASQNVDHYLAWYQQKPGQAPRLLIYDASNRATGIPARFSGSGSGTDFTLTISSLEPEDFAVYYCQQRSNWPPWTFGQGTKVEIKR
notes: Fab expressed in E. coli: VH joined to CH1 from Plasmid A (His6 and Flag tags), VL joined to kappa CL from Plasmid C; also called H:APFF VLTH & L:NDH
Question: B7 was tested. Which ELISA signal (Recombinant Human DLL4 [3]) did it give?
Answer: 0.979

Question: And the ELISA signal (Recombinant Human DLL4 [4])?
Answer: 0.288

Question: What about the ELISA signal (Recombinant Human DLL4 [5]) of the same binder?
Answer: 0.608

Question: What about the ELISA signal (Recombinant Human DLL4 [6]) of the same binder?
Answer: 0.776

Question: And the “ECL signal” value (Recombinant Human DLL4 [7])?
Answer: 9790

B8: Fab VH1-46_IGHD6-6*01_IGHJ1*01 S102A/S103P/S104F/H111F I51A/N52L/S54T/G56H & L6_IGKJ1*01 S28N/S30D/S31H S52L/A55S (Fab, V domains shown)
VH: QVQLVQSGAEVKKPGASVKVSCKASGYTFTSYYMHWVRQAPGQGLEWMGIALPTGHSTSYAQKFQGRVTMTRDTSTSTVYMELSSLRSEDTAVYYCAREEYAPFSAEYFQFWGQGTLVTVSS
VL: EIVLTQSPATLSLSPGERATLSCRASQNVDHYLAWYQQKPGQAPRLLIYDALNRSTGIPARFSGSGSGTDFTLTISSLEPEDFAVYYCQQRSNWPPWTFGQGTKVEIKR
notes: Fab expressed in E. coli: VH joined to CH1 from Plasmid A (His6 and Flag tags), VL joined to kappa CL from Plasmid C; also called H:APFF ALTH & L:NDH LS
Question: What does the source list for B8?
Answer: ELISA signal (Recombinant Human DLL4 [3]): 0.458; ELISA signal (Recombinant Human DLL4 [4]): 0.046; ELISA signal (Recombinant Human DLL4 [5]): 0.04; ELISA signal (Recombinant Human DLL4 [6]): 0.282; ECL signal (Recombinant Human DLL4 [7]): 3720
